According to IntAct's records for PubMed 12713445:

What was measured:
dlg2_human DLG2 = dlg2_human DLG2 (UniProt Q15700)
dlg3_human DLG3 = dlg3_human DLG3 (UniProt Q92796)
Chain of UniProt Q92796 (Q92796 whole entry): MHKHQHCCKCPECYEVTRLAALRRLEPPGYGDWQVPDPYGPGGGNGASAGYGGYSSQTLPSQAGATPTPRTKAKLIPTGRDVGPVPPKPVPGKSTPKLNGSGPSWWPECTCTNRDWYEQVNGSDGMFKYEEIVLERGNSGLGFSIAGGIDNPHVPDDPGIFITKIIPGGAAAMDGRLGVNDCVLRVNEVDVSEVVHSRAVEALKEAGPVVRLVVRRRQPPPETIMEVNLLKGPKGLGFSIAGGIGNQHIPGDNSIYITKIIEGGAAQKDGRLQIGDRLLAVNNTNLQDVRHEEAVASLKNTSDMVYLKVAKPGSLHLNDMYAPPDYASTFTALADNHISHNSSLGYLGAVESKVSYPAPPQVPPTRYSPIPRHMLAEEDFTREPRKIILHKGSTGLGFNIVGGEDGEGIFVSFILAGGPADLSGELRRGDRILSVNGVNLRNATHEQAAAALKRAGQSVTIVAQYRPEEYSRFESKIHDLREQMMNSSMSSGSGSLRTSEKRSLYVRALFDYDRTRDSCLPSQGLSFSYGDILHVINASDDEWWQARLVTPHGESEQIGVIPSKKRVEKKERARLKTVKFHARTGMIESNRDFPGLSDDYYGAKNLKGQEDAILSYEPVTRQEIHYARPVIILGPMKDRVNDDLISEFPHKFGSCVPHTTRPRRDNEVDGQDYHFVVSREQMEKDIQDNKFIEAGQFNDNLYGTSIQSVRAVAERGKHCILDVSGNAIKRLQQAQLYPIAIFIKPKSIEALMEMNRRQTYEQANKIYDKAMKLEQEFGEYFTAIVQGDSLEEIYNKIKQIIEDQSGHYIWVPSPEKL

Chain of UniProt Q15700 (Q15700 whole entry, looked up): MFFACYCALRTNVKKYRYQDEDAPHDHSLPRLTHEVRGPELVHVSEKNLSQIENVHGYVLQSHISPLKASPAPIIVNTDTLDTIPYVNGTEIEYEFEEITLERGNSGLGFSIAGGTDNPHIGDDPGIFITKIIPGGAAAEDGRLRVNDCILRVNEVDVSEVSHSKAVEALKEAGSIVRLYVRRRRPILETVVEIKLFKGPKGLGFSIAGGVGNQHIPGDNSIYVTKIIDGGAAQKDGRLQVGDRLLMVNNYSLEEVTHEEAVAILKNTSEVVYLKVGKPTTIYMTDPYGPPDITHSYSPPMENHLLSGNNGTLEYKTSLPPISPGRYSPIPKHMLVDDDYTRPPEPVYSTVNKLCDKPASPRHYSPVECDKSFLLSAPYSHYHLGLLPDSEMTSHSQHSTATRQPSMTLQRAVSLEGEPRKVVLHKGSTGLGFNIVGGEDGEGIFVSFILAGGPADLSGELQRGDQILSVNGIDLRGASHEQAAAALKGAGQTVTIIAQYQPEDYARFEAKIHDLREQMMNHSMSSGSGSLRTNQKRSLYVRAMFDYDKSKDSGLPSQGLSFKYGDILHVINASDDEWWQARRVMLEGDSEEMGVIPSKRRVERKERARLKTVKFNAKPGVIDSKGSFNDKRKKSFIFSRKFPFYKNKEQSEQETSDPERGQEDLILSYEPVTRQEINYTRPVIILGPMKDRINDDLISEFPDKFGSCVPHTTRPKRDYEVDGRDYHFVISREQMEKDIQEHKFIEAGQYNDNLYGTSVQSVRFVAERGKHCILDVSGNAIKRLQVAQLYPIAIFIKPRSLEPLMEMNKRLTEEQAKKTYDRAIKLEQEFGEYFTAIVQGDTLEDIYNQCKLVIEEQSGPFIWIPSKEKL

Low-density lipoprotein receptor-related protein 2 (Homo sapiens), P98164 S4653V;V4655S
effect of a mutation on the interaction (dlg2_human DLG2): disrupting interaction strength | effect of a mutation on the interaction (dlg3_human DLG3): disrupting interaction strength
